Key:
[1] = molecular target: RBD (receptor binding domain) of the SARS-CoV-2 S1 (SARS-CoV-2, UniProt P0DTC2 319-541)
HcoV-NL63 S protein = molecular target: T1, HcoV-NL63 S protein (HcoV-NL63, UniProt Q6Q1S2 19-1296); assay: direct ELISA, OD450
T1 construct: also called hCov-NL63 S1
T1 sequence: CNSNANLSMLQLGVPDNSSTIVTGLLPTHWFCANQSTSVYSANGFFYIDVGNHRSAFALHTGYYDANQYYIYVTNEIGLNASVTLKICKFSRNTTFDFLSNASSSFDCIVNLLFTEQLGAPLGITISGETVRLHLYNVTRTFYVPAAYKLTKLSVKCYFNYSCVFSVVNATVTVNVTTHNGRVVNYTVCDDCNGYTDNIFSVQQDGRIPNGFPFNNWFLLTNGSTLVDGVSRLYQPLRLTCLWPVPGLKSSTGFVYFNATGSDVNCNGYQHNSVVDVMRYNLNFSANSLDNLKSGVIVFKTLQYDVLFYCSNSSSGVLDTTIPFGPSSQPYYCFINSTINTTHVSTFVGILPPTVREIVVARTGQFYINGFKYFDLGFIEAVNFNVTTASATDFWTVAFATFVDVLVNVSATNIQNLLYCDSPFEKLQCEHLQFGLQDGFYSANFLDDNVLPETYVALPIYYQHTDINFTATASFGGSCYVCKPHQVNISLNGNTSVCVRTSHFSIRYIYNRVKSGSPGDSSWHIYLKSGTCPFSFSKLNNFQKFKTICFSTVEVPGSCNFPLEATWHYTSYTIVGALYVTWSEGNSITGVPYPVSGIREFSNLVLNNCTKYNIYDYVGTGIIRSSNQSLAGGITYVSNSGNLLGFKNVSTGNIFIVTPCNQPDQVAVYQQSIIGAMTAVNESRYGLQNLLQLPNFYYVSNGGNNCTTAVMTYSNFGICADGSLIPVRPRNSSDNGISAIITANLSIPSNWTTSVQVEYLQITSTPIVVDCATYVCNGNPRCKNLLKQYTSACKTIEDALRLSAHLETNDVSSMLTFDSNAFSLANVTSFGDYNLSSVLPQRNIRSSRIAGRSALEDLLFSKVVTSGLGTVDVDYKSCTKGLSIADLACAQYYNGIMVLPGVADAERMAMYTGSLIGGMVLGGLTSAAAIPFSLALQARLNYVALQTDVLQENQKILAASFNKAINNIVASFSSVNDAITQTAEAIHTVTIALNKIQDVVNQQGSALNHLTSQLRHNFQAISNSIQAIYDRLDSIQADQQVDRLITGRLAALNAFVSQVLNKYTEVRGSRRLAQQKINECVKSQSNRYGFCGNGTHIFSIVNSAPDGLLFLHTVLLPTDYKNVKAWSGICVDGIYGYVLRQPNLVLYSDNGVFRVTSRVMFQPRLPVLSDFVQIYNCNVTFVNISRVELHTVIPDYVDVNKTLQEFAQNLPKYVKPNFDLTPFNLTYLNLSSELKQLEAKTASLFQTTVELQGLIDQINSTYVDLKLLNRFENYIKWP

HcoV-OC43 S protein = molecular target: T2, HcoV-OC43 S protein (HcoV-OC43, UniProt P36334 14-1297); assay: direct ELISA, OD450
T2 sequence: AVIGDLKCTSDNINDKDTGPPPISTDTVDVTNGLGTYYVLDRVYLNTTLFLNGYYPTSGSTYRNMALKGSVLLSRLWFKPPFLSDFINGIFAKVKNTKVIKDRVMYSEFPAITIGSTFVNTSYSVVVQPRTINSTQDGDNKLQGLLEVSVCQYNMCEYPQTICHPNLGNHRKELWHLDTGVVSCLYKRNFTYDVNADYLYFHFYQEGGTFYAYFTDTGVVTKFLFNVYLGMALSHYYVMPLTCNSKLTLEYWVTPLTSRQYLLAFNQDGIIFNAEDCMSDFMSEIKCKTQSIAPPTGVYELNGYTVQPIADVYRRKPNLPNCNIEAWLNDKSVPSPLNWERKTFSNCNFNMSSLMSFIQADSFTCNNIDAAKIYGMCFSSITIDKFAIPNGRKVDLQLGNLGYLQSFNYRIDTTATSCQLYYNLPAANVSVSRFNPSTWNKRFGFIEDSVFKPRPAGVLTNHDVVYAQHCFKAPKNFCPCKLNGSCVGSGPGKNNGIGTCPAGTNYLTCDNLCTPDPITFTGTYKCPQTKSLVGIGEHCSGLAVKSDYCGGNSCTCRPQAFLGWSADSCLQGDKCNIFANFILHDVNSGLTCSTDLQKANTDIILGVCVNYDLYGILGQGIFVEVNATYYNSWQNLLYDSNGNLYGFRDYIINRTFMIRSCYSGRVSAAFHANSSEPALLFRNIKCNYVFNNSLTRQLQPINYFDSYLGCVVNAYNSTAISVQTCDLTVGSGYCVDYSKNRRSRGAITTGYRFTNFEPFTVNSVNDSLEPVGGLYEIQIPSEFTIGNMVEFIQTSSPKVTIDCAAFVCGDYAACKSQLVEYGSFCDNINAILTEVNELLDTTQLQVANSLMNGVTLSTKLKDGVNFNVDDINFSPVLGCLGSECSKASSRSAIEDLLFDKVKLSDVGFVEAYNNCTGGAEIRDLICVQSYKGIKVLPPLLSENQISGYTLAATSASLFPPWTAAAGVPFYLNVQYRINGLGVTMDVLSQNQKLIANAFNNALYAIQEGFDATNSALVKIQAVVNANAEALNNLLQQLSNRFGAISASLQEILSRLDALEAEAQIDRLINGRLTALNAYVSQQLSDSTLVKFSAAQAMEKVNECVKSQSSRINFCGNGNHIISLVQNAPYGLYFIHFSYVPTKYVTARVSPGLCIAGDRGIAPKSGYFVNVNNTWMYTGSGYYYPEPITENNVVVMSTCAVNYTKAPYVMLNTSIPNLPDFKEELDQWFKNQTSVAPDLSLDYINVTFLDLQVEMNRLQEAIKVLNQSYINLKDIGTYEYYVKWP

HcoV-229E S protein = molecular target: T3, HcoV-229E S protein (HcoV-229E, UniProt P15423 16-1115); assay: direct ELISA, OD450
T3 sequence: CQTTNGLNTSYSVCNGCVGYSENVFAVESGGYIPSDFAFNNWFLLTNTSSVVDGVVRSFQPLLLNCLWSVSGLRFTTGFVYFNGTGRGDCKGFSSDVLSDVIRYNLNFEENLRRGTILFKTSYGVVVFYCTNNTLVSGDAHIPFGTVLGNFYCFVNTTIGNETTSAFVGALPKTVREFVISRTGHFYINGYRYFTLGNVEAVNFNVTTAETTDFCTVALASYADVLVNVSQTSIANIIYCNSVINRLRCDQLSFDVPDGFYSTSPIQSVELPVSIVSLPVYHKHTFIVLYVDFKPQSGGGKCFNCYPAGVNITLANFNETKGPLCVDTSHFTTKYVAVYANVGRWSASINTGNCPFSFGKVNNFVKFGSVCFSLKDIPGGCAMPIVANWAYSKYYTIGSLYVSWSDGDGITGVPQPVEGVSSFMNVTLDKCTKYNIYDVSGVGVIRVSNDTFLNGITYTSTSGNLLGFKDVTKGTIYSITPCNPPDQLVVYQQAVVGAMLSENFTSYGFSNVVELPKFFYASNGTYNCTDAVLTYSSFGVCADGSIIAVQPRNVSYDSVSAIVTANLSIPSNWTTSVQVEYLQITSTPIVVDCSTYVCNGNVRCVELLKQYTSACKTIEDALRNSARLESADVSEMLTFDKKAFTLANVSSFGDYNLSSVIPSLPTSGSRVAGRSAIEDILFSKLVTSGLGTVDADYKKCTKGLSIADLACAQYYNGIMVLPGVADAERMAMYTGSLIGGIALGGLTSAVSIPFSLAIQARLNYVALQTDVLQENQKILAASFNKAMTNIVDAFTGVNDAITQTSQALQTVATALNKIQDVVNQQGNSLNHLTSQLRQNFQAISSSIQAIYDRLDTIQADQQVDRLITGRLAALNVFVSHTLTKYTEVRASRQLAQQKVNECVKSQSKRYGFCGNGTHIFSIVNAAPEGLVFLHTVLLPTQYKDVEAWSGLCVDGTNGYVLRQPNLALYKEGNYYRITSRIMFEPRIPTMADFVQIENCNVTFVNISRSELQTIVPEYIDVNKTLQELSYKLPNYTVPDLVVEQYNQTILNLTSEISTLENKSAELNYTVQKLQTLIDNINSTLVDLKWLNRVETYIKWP

[2] = molecular target: SARS-CoV-2 Spike S1 protein (SARS-CoV-2, UniProt P0DTC2 16-685)

B1: rabbit monoclonal antibody 9H1 against the SARS-CoV-2 S1 (antibody, V domains shown)
VH: QSVEESGGRLVTPGTPLTLTCTVSGFSLSRYAMSWVRQAPGKGLEWIGIIVDSGHTAYASWAKGRFTISRTSTTVDLKMTSLTTEDTATYFCARETGGGAFYVFEFWGPGTVVTVSS
VL: AQVLTQTPSSVSAAVGGTVTINCQASEDIYDNLVWYQQKPGQPPKLLIYDASTLAFGVSSRFRGSGSGTHFTLTMRDVQCDDAATYYCQGEFSCSSGDCTAFGGGTEVVVKG
B1 was tested, and the “EC50 (read off the curve)” value [1] was roughly 0.02 µg/mL, the binding result (HcoV-NL63 S protein) was “no binding” and the binding result (HcoV-OC43 S protein) was “no binding”. For the same binder, the binding result (HcoV-229E S protein) was “no binding”, the Kd [2] was 0.769 nM and the koff [2] was 0.00025 s⁻¹. It also gave a kon [2] of 325000 M⁻¹ s⁻¹.

B2: rabbit monoclonal antibody 5E1 against the SARS-CoV-2 S1 (antibody, V domains shown)
VH: QSVEESGGRLVTPGTPLTLTCTVSGIDLSSYAMGWVRQAPGKGLEYIGIIYISGLTYYASWAKGRFTISKTSTTVDLKIPSPTTEDTATYFCARGEYNSHSHYLLWGPGTLVTVSS
VL: AYDMTQTPSSVSEPVGGTVSIKCQASQNIYSNLAWYQQKPGQRPKLLIYDASQLASGVPSRFKGSGSGTEYTLTISGVECADAATYYCQQGFESSDIFNVFGGGTEVVVKG
B2: no binding (HcoV-NL63 S protein); no binding (HcoV-OC43 S protein); no binding (HcoV-229E S protein). For the same binder, the Kd [2] was no more than 0.138 nM, the koff [2] was no more than 1e-05 s⁻¹ and the kon [2] was 72300 M⁻¹ s⁻¹.
